This note sets out measurements from publication PMC6120983, “Chimeric Proteins Containing MAP-1 and Functional Domains of C4b-Binding Protein Reveal Strong Complement Inhibitory Capacities” (Frontiers in Immunology, 2018).

Sequences and labels used below:
B2: C4BP^1−5:MAP-1 (other)
chain: NCGPPPTLSFAAPMDITLTETRFKTGTTLKYTCLPGYVRSHSTQTLTCNSDGEWVYNTFCIYKRCRHPGELRNGQVEIKTDLSFGSQIEFSCSEGFFLIGSTTSRCEVQDRGVGWSHPLPQCEIVKCKPPPDIRNGRHSGEENFYAYGFSVTYSCDPRFSLLGHASISCTVENETIGVWRPSPPTCEKITCRKPDVSHGEMVSGFGPIYNYKDTIVFKCQKGFVLRGSSVIHCDADSKWNPSPPACEPNSCINLPDIPHASWETYPRPTKEDVYVVGTVLRYRCHPGYKPTTDEPTTVICQKNLRWTPYQGCEAHTVELNNMFGQIQSPGYPDSYPSDSEVTWNITVPDGFRIKLYFMHFNLESSYLCEYDYVKVETEDQVLATFCGRETTDTEQTPGQEVVLSPGSFMSITFRSDFSNEERFTGFDAHYMAVDVDECKEREDEELSCDHYCHNYIGGYYCSCRFGYILHTDNRTCRVECSDNLFTQRTGVITSPDFPNPYPKSSECLYTIELEEGFMVNLQFEDIFDIEDHPEVPCPYDYIKIKVGPKVLGPFCGEKAPEPISTQSHSVLILFHSDNSGENRGWRLSYRAAGNECPELQPPVHGKIEPSQAKYFFKDQVLVSCDTGYKVLKDNVEMDTFQIECLKDGTWSNKIPTCKKNEIDLESELKSEQVTE

Where two headings read alike, the source gives them in different places.

The target in one test is T1, recombinant CL-11 (UniProt Q9BWP8 26-271).
T1 construct: collectin-11 (CL-11, CL-K1); Held on mannan-coated wells in the ELISA; also called rCL-11; collectin-11; source: produced in house
Nature of the test: ELISA; rMBL or rCL-11 (2 μg/ml) held on mannan-coated wells; serial dilutions of the proteins from 13.5 nM in TBS/Tween/Ca^2+ (5 mM CaCl2), 2 h; detected with biotinylated anti-MASP-1/-3/MAP-1 mAb 8B3; Kd = concentration at half of the maximum binding, fit specific binding with Hill slope, Bmax shared. (An ELISA detects its analyte on a solid surface through an enzyme-linked reagent.)

The target in test [1] is T2, recombinant MBL (UniProt P11226 21-248). The test is described as above.
In another test the target is MAP-1:C4BP^1−5 (human) (UniProt P48740). Description: SEC; 50 μg on Superdex 200 HR 10/30, 0.5 ml/min, TBS/Ca^2+ (5 mM CaCl2); fractions checked by sandwich ELISA (anti-C4BP capture, anti-MAP-1 detection). For orientation: Size exclusion chromatography separates by hydrodynamic size, large species first.
In test [2] the target is T2, recombinant MBL.
The target in test [3] is T2, recombinant MBL. Description: cell-based or functional assay.
The target of the test “C4BP^1−5:MAP-1” is B2. Description: SEC; 50 μg on Superdex 200 HR 10/30, 0.5 ml/min, TBS/Ca^2+ (5 mM CaCl2); fractions checked by sandwich ELISA (anti-C4BP capture, anti-MAP-1 detection). The settings on record: both partners purified.

T2 sequence (P11226 21-248): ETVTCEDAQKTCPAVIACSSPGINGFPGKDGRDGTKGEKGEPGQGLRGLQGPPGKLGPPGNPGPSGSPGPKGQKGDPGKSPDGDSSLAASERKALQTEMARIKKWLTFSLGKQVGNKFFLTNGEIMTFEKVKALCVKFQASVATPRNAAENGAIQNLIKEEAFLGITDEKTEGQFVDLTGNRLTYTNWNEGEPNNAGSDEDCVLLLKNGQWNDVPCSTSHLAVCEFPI
T1 sequence (Q9BWP8 26-271): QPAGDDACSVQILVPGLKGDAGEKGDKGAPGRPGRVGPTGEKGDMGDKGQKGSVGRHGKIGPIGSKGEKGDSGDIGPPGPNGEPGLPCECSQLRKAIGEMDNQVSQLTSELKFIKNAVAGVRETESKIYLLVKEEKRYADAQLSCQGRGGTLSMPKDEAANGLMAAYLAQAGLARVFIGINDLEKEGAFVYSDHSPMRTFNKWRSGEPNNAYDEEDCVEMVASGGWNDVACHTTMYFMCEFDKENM

Consider “MAP-1:C4BP^1−5 (from UniProt P48740-3 20-380)”, for which the Kd in the test with recombinant CL-11 was found to be 1.97 nM. For the same molecule, the Kd in the test with recombinant MBL [1] turned out to be 0.35 nM. For the same molecule, the stoichiometry N with MAP-1:C4BP^1−5 (human) was 2. Also, in the test with recombinant MBL [2], the IC50 of C3 deposition (ELISA; inhibitor pre-incubated on mannan-bound rMBL, then 2% MBL defect serum) was 0.36 nM; the IC50 of C4 deposition (ELISA; inhibitor pre-incubated on mannan-bound rMBL, then 2% MBL defect serum) was determined as 0.45 nM; the IC50 of TCC deposition (ELISA; inhibitor pre-incubated on mannan-bound rMBL, then 2% MBL defect serum) is 0.17 nM.

B1: recombinant MAP-1 (natural protein, human, UniProt P48740-3 20-380, looked up)
chain: HTVELNNMFGQIQSPGYPDSYPSDSEVTWNITVPDGFRIKLYFMHFNLESSYLCEYDYVKVETEDQVLATFCGRETTDTEQTPGQEVVLSPGSFMSITFRSDFSNEERFTGFDAHYMAVDVDECKEREDEELSCDHYCHNYIGGYYCSCRFGYILHTDNRTCRVECSDNLFTQRTGVITSPDFPNPYPKSSECLYTIELEEGFMVNLQFEDIFDIEDHPEVPCPYDYIKIKVGPKVLGPFCGEKAPEPISTQSHSVLILFHSDNSGENRGWRLSYRAAGNECPELQPPVHGKIEPSQAKYFFKDQVLVSCDTGYKVLKDNVEMDTFQIECLKDGTWSNKIPTCKKNEIDLESELKSEQVTE
B1: in the test with recombinant MBL [3], the “IC50 of C3 deposition (ELISA; inhibitor pre-incubated on mannan-bound rMBL, then 2% MBL defect serum)” value was found to be 3.35 nM; the “IC50 of C4 deposition (ELISA; inhibitor pre-incubated on mannan-bound rMBL, then 2% MBL defect serum)” value was found to be 0.14 nM; the “IC50 of TCC deposition (ELISA; inhibitor pre-incubated on mannan-bound rMBL, then 2% MBL defect serum)” value was 0.46 nM.
Consider B2, for which the Kd with recombinant MBL [1] (both partners purified) is 0.56 nM. Also, in the test with recombinant MBL [3], the “IC50 of C3 deposition (ELISA; inhibitor pre-incubated on mannan-bound rMBL, then 2% MBL defect serum)” value amounted to 7.72 nM; the “IC50 of C4 deposition (ELISA; inhibitor pre-incubated on mannan-bound rMBL, then 2% MBL defect serum)” value amounted to 1.2 nM; the “IC50 of TCC deposition (ELISA; inhibitor pre-incubated on mannan-bound rMBL, then 2% MBL defect serum)” value is 0.92 nM.

B3: C4BP^1−5:MAP-1 (other)
chain: NCGPPPTLSFAAPMDITLTETRFKTGTTLKYTCLPGYVRSHSTQTLTCNSDGEWVYNTFCIYKRCRHPGELRNGQVEIKTDLSFGSQIEFSCSEGFFLIGSTTSRCEVQDRGVGWSHPLPQCEIVKCKPPPDIRNGRHSGEENFYAYGFSVTYSCDPRFSLLGHASISCTVENETIGVWRPSPPTCEKITCRKPDVSHGEMVSGFGPIYNYKDTIVFKCQKGFVLRGSSVIHCDADSKWNPSPPACEPNSCINLPDIPHASWETYPRPTKEDVYVVGTVLRYRCHPGYKPTTDEPTTVICQKNLRWTPYQGCEAHTVELNNMFGQIQSPGYPDSYPSDSEVTWNITVPDGFRIKLYFMHFNLESSYLCEYDYVKVETEDQVLATFCGRETTDTEQTPGQEVVLSPGSFMSITFRSDFSNEERFTGFDAHYMAVDVDECKEREDEELSCDHYCHNYIGGYYCSCRFGYILHTDNRTCRVECSDNLFTQRTGVITSPDFPNPYPKSSECLYTIELEEGFMVNLQFEDIFDIEDHPEVPCPYDYIKIKVGPKVLGPFCGEKAPEPISTQSHSVLILFHSDNSGENRGWRLSYRAAGNECPELQPPVHGKIEPSQAKYFFKDQVLVSCDTGYKVLKDNVEMDTFQIECLKDGTWSNKIPTCKKNEIDLESELKSEQVTE
modifications: (Gly4Ser)3 linker between C4BP CCP1-5 and MAP-1 left out of the pieces; CCP1-5 limits from Sushi 1-5 features; MAP-1 (MAp44, NM_001031849.2) is the 380-aa MASP1 isoform, signal peptide 1-19 removed …
For B3, the Kd with recombinant CL-11 (both partners purified) turned out to be 5.49 nM. The “stoichiometry N” value in the test with C4BP^1−5:MAP-1 was 2.

The term Kd denotes the constant that tells how readily two partners part at equilibrium. The term stoichiometry N denotes the number of molecules, sites or subunits per partner or assembly.
